Laboratory results as given in publication PMC3873296, “Crystal Structures and Molecular Dynamics Simulations of Thermophilic Malate Dehydrogenase Reveal Critical Loop Motion for Co-Substrate Binding” (PLoS ONE, 2013).

Key:
[1] = biological target: T1, TtMDH (malate dehydrogenase from Thermus thermophilus) (Thermus thermophilus, UniProt P10584); assay: X-ray crystal structure, […] Å; type: binding; conditions: apo crystal soaked with 2 mM NAD for about 30 min
T1 construct: gene mdh
T1 sequence (P10584 1-327): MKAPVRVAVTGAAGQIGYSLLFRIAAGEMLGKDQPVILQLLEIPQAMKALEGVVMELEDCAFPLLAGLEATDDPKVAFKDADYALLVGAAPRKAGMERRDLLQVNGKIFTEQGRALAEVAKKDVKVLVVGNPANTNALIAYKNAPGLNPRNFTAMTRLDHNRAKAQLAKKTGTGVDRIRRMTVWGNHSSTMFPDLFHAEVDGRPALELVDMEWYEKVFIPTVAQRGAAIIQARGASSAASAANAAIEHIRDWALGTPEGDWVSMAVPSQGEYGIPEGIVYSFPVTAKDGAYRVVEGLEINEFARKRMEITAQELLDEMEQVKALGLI

[2] = biological target: T1, TtMDH (malate dehydrogenase from Thermus thermophilus); assay: isothermal titration calorimetry; type: binding
From the text: isothermal titration calorimetry on TtMDH (malate dehydrogenase from Thermus thermophilus)

purified protein = substrate: O=C(O)CC(=O)C(=O)O; assay: purified protein; type: biochemical, Thermus thermophilus; conditions: 0.15 mM NADH, 100 mM glycine-NaOH pH 10.0, 37 °C
[3] = biological target: the molecule itself; assay: SEC; analytical gel filtration on Superdex 200 HR; 0.1 ml TtMDH at 8.8 mg/ml; elution compared with high-molecular-weight standards; estimated mass 61 kDa against 37 kDa for the subunit

Molecule: NC(=O)c1ccc[n+]([C@@H]2O[C@H](COP(=O)(O)OP(=O)(O)OC[C@H]3O[C@@H](n4cnc5c(N)ncnc54)[C@H](O)[C@@H]3O)[C@@H](O)[C@H]2O)c1 [NAD]
- X-ray crystal structure, 2.36 Å [1]: co-substrate binding site of TtMDH that could be modeled as NAD

Molecule: NC(=O)C1=CN([C@@H]2O[C@H](COP(=O)(O)OP(=O)(O)OC[C@H]3O[C@@H](n4cnc5c(N)ncnc54)[C@H](O)[C@@H]3O)[C@@H](O)[C@H]2O)C=CC1 [NADH]
- Kd [2]: 1160 nM

B1: Malate dehydrogenase from Thermus thermophilus (enzyme, UniProt P61977 1-327, looked up)
chain: T1 sequence (P10584 1-327)
notes: Malate dehydrogenase (EC 1.1.1.37) of Thermus thermophilus; calculated mass of the recombinant protein 36874.48 Da; also called TtMDH; MDH; source: E. coli BL21(DE3), purified (heat incubation at 70°C, Ni2+-NTA, Superdex 200 HR gel filtration)
- Km (purified protein): 168.1 µM
- kcat (purified protein): 281.6 s⁻¹
- stoichiometry N [3]: 2
